Laboratory results: patent US20180051064A1 (AJOU UNIVERSITY INDUSTRY ACADEMIC COOPERATION FOUNDATION, published 2018)
Where no end group is shown, it is not given here. Fc = antibody heavy-chain constant region Fc (hinge-CH2-CH3)

T1: NRP2-b1b2 (275-595) protein (UniProt O60462 275-595)
T1 construct: range 275-595; also called neuropilin-2 b1b2 protein
T1 sequence (looked up): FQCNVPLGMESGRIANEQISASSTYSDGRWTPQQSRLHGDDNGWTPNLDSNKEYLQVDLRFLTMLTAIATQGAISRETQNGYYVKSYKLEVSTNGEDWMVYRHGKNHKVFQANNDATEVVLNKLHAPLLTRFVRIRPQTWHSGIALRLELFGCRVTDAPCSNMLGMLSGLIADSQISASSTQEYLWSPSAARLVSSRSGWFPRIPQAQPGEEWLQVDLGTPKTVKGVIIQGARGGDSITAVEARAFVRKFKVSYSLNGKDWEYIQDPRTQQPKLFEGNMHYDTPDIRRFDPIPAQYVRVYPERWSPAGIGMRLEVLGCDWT


Key:
[1] = biological target: T2, NRP1-b1b2 (273-586) protein (UniProt O14786 273-586); experiment: SPR; KD on NRP2-b1b2 divided by KD on NRP1-b1b2
T2 construct: range 273-586; Prepared according to Appleton et al. 2007; Biotinylated (Sulfo-NHS-LC-biotin) for the yeast display FACS; unlabelled in ELISA and SPR; also called neuropilin-1 b1b2 protein; biotinylated NRP1-b1b2
T2 sequence (O14786 273-586 limits assumed, form in doubt): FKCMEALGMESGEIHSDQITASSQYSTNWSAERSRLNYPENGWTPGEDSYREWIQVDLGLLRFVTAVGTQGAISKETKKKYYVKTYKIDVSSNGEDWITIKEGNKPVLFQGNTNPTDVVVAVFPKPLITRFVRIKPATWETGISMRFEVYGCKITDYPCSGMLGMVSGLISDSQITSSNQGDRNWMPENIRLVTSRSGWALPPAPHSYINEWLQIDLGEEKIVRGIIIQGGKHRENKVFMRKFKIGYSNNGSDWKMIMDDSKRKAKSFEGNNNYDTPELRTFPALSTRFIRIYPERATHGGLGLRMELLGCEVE
Experimental: (§1) Specifically, each of NRP1 and NRP2 b1b2 proteins was diluted in 10 mM Na-acetate buffer (pH 4.0), and immobilized on a CM5 sensor chip (GE healthcare, USA) at about 1000 response units (RU). […] After binding and dissociation analysis, regeneration of the CM5 chip was performed by flushing buffer (20 mM NaOH, 1M NaCl, pH10.0) at a flow rate of 30 μl/min for 1 minute.

[2] = biological target: T2, NRP1-b1b2 (273-586) protein; experiment: SPR (Biacore 2000), NRP1-b1b2 immobilised on CM5 chip
Experimental: as §1

[3] = biological target: T1, NRP2-b1b2 (275-595) protein; experiment: SPR (Biacore 2000), NRP2-b1b2 immobilised on CM5 chip
Experimental: as §1

[4] = biological target: T2, NRP1-b1b2 (273-586) protein; experiment: ELISA on immobilised NRP1-b1b2, absorbance at 405 nm [A]
Experimental: (§2) 1 μg of each of NRP1-b1b2 (273-586) protein, NRP2-b1b2 (275-595) protein and the control group VEGFR2 (46-753) was immobilized in each well of a 96-well EIA/RIA plate (COSTAR Corning In., USA) at room temperature for 1 hour, and then washed three times with 0.1% PBST (0.1% Tween20, pH 7.4, 137 mM NaCl, 10 mM Phosphate, 2.7 mM KCl, SIGMA-ALDRICH co., USA) for 10 minutes. After binding with 5% skim milk (5% Skim milk, pH 7.4, 137 mM NaCl, 10 mM Phosphate, 2.7 mM KCl, SIGMA-ALDRICH co., USA) for 1 hour, each well was washed three times with 0.1% PBST (0.1% Tween20, pH 7.4, 137 mM NaCl, 10 mM Phosphate, 2.7 mM KCl, SIGMA-ALDRICH co., USA) for 10 minutes. […] Each well was bound with AP-conjugated anti-biotin antibody (alkaline phosphatase-conjugated anti-biotin mAb, Sigma, USA), and then reacted with pNPP ([…], SIGMA-ALDRICH co., USA), and the absorbance at 405 nm was measured.

[5] = biological target: T2, NRP1-b1b2 (273-586) protein; experiment: SPR; lower end tied to Fc-TPP8 by Table 5 (65.8)
Experimental: as §1

[6] = biological target: T2, NRP1-b1b2 (273-586) protein; experiment: ELISA, biotinylated peptide (100 nM) on coated NRP1-b1b2
Experimental: as §2

[7] = biological target: T2, NRP1-b1b2 (273-586) protein; experiment: competitive ELISA on NRP1-b1b2; TPP11 peptide varied, blocked ligand RPARPAR [10 µM], relative binding (%) [B]

Binding Affinity Ratio [(KD for NRP2)/KD for NRP1)] [1] | Kd [2] | Kd [3] | EC50 (read off the curve) [4] | fold higher affinity for NRP1 than for NRP2 [5] | fold lower affinity than Fc-TPP11 [6] | IC50 (read off the curve) [7] | Binder
625 | 1.81 nM | 1130 nM | ~0.5 nM | – | – | – | Fc-GGGGSGGGGSGGGGSHTPGNSNQFVLTSTRPPR (Fc fusion, not shown: a dimerising Fc or GST; small tags and cut ends, also: Fc letters not given here, disulfide-linked homodimer through Fc hinge, Expressed in HEK293-F and purified on Protein A; disulfide-linked dimer) [Fc-TPP1 fusion protein]
65.8 | 3.85 nM | 254 nM | ~3 nM | 60 fold | – | – | Fc-GGGGSGGGGSGGGGSHTPGIATRTPR (Fc fusion, not shown: a dimerising Fc or GST; small tags and cut ends, also: Fc letters not given here, disulfide-linked homodimer through Fc hinge, Expressed in HEK293-F and purified on Protein A; disulfide-linked dimer) [Fc-TPP8 fusion protein]
– | – | – | – | – | 100 fold | ~2000 nM | HTPGNSKPTRTPRR (also: biotinylated for ELISA, position not given here, also called TPP11 peptide; synthesized TPP11 peptide) [synthetic peptide TPP11 not fused to Fc]
